Ends that are not written are not given here.
Key:
full-length human PKN = full-length human PKN (Homo sapiens, UniProt Q16512); test: Co-immunoprecipitation of PKN with HA-tagged α-actinin in COS7 cells; assay type: cell-based
[1] = target: T1, in vitro translated PKNN2 (Homo sapiens, UniProt Q16512); test: In vitro binding of GST-HuActSkl fragments to PKNN2; conditions: resistant to 0.5% Triton X-100/0.5 M NaCl wash
T1 construct: made in house; host or cells: in vitro translation in rabbit reticulocyte lysate (Promega)
T1 sequence (Q16512 1-474): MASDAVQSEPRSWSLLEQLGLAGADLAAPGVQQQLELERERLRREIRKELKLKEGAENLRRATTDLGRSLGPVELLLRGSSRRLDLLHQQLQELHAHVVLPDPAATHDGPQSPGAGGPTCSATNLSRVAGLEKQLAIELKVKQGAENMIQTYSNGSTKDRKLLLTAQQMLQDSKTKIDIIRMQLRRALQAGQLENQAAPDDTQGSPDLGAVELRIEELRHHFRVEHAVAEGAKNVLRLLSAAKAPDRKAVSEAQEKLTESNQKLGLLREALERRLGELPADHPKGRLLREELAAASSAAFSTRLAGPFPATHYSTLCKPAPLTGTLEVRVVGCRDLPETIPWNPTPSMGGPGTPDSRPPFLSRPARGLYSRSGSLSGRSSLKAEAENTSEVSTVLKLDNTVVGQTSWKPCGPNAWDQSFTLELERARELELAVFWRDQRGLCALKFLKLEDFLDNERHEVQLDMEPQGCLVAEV
Method: In vitro transcription for the N-terminal region of PKN (the amino acid sequence 1-474, this region being designated as PKNN2 (Example 8)) was performed as described in Example 8. For in vitro translation, cRNAs were translated in rabbit reticulocyte lysate (Promega) in the presence of [^35S] methionine as described in Example 8.
(§1) For in vitro binding experiment, 2 μl of in vitro translated PKNN2 was mixed with 5 μg of each GST-α-actinin fusion protein or with 25 μg of GST alone in 400 μl of GST binding buffer (20 mM Tris/HCl at pH 7.5, 0.5 mM DTT, 150 mM NaCl, 0.05% Triton-X100, 1 mM EDTA, 1 μg/ml leupeptin) and incubated for 1 hr at 4° C. After addition of 25 μl of glutathione-Sepharose 4B pretreated with 10 mg/ml of E. coli extract to block nonspecific binding, the binding reaction was continued for additional 30 min at 4° C. The glutathione-Sepharose 4B was then washed four times in GST washing buffer (20 mM Tris/HCl at pH 7.5, 0.5 mM DTT, 1 mM EDTA, 1 μg/ml leupeptin) containing 0.5 M NaCl and 0.5% Triton X-100, and further washed with GST washing buffer. Bound proteins were eluted with GST elution buffer (100 mM Tris/HCl at pH 7.5, 10 mM glutathione, 120 mM NaCl, 1 mM EDTA, 0.5 mM DTT, 1 μg/ml leupeptin) and were subjected to SDS-PAGE. The binding was visualized and quantitated by an imaging analyzer (FUJI BAS1000).

[2] = tested on: GST-NF (each subunit) fusion proteins; test: In vitro binding of in vitro translated PKN to GST-NF (each subunit); conditions: GST pull-down
From the text: For in vitro transcription, truncated human PKN was made as follows; Expression vector pPKNN2 for N-terminal region of PKN (the amino acid sequence 1-474 in SEQ ID NO: 1, this region was designated as “PKNN2”) was made by digesting phPKN-H4 (a plasmid containing human PKN cDNA in pBluescript II SK (Mukai, H. & Ono, Y., Biochem. Biophys. Res. Commun. 199, 897-904 (1994)) with Bst EII, and filling in the ends with T4 DNA polymerase, and self-legation. This removed the original amino acid sequences C-terminal downstream of the BstEII site (1425 nucleotides from initiating ATG codon), and a stop codon was created in the plasmid sequence. Fragment coding for the amino acid sequence 614-942 in SEQ ID NO: 1, (This region was designated as “PKNC2”) containing the conserved catalytic domain of human PKN was made by PCR amplification. Expression vector pPKNC2 was made by subcloning this fragment into pRc/CMV (Invitfrogen Corp.). These plasmids were linealized by cutting with XbaI, and CRNA was transcribed using T7 RNA polymerase. For NFL, pBL (Nakagawa, T. et al., J. Cell. Biol. 129, 411-429 (1995)) was linealized by cutting with HindIII, and CRNA was transcribed using T3 RNA polymerase. For in vitro translation, these cRNAs were translated in rabbit reticulocyte lysate (Promega) in the presence of [^35S] methionine. […]

[3] = tested on: repeat 20 of rat α-spectrin; test: In vitro binding of PKN to α-spectrin repeat 20
Method: cDNAs encoding the spectrin-like repeat 3 (the amino acid sequence 479-600) and EF-hand-like region (the amino acid sequence 712-843) of HuActNm were amplified by PCR from human brain cDNA library, and were ligated to pGEX4T vector. cDNAs encoding the spectrin repeat 20 and EF-hand-like region of α-actinin were amplified by PCR from rat brain cDNA library, and were ligated to pGEX4T vector. Expression and purification of GST or GST fusion proteins were performed according to the manufacturer's instruction (Phamacia Biotech Inc.). The eluate from glutathione-Sepharose 4B (Pharmacia Biotech Inc.) was dialyzed overnight against 10 mM Tris/HCl at pH 7.5 containing 1 mM EDTA, 1 mM DTT, and 0.1 μg/ml leupeptin.
Since PKN bound to the repeat 3 of α-actinin, the present inventors have examined whether PKN can bind to the repeat 20 of α-spectrin.

[4] = target: T2, spectrin-like repeat 3 domain of HuActNm (Homo sapiens, UniProt P12814); test: In vitro binding of PKNN2 to HuActNm spectrin-like repeat 3
T2 construct: made in house; host or cells: E. coli
T2 sequence (P12814 479-600): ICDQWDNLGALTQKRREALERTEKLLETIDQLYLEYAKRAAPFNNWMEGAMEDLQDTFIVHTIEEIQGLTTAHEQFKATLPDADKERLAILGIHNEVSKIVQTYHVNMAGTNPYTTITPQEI
Method: as §1
(§2) Accordingly, the present inventors have studied whether the in vitro translated PKNN2 could bind to the region of HuActNm corresponding to the PKN-binding site of HuActSkl in the same manner as in Example 25. The HuActNm fragment used in the experiment was prepared according to the following procedure. […]

[5] = target: T3, EF-hand-like domain of HuActNm (Homo sapiens, UniProt P12814); test: In vitro binding of PKNN2 to HuActNm EF-hand-like domain
T3 construct: made in house; host or cells: E. coli (GST fusion); rabbit reticulocyte lysate (PKNN2)
T3 sequence (P12814 712-843): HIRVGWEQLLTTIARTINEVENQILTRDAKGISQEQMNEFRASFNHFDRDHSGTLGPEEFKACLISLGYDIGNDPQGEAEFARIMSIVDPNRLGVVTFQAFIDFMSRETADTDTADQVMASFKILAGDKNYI
Method: as §1, §2

α-actinin (HuActSkl) = test: Yeast two-hybrid, regions of PKN with HuActSkl; assay type: binding, human
α-actinin (HuActSkl), sequence (P35609 344-894 limits assumed): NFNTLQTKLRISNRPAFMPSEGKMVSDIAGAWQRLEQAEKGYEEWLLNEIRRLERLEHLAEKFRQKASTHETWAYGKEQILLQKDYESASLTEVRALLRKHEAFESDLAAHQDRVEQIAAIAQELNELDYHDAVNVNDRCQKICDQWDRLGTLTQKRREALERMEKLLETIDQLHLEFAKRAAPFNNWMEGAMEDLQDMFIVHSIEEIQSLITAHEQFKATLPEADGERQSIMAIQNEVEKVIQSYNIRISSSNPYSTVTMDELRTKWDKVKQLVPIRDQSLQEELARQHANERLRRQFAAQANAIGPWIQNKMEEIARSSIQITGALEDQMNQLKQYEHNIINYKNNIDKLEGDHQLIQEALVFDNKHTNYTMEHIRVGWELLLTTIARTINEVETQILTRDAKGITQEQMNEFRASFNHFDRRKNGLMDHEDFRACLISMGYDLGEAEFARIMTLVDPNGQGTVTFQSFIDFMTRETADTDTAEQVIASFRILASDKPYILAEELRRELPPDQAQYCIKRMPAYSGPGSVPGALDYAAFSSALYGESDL
Method: Schemes of the fusion constructs for human PKN, human skeletal muscle type α-actinin (HuActSkl , designated in (Beggs, A., et al., J. Biol. Chem. 267, 9281-9288 (1992)) and non-skeletal muscle type α-actinin (HuActNm, designated in (Beggs, A., et al., J. Biol. Chem. 267, 9281-9288 (1992)) used in this study are shown in FIGS. 41 and 42. Screening of proteins, which bind to the N-terminal region of human PKN (the amino acid sequence 1-540, this region being designated as “PKNNl”), was performed as described in Example 6. Primary positive clones were recovered and retransfected into the original yeast host strain YGH1 (a, ura3-52, his3-200, ade2-101, lys2-801, trpl-901, leu2-3, Can^r, gal4-542, gal80-538, LYS2::gal1uas-gal1tala-HIS3, URA3::gall-lacZ) in combination with the Gal4bd-PKN or the Gal4bd-p53 tumor suppresser. Plasmids that activated marker expression only in the presence of PKN were analyzed further.
The two-hybrid methods was employed to identify the region of PKN that interacted with HuActSkl , and this region was compared with the binding site for RhoA, which binds to PKN, in vitro and in vivo. […] This region corresponds to the second leucine zipperlike sequence and the N-terminal region adjacent thereto, which is conserved through evolution in vertebrates (Mukai, H., et al., Biochim. Biophys. Acta 1261, 296-300 (1995)). […]

RhoA = target: T4, RhoA (Homo sapiens, UniProt P61586); test: Yeast two-hybrid, region of PKN with RhoA; assay type: binding; conditions: data not shown
T4 construct: expressed in transfected cells; host or cells: yeast (two-hybrid system)
T4 sequence (P61586 whole entry): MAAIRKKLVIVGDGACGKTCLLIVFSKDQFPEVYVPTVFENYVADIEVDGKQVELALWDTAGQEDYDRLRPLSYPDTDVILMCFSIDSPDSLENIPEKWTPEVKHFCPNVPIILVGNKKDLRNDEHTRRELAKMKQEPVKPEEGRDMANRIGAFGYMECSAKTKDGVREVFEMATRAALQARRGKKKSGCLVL
From the text: The two-hybrid methods was employed to identify the region of PKN that interacted with HuActSkl , and this region was compared with the binding site for RhoA, which binds to PKN, in vitro and in vivo. […] This region corresponds to the second leucine zipperlike sequence and the N-terminal region adjacent thereto, which is conserved through evolution in vertebrates (Mukai, H., et al., Biochim. Biophys. Acta 1261, 296-300 (1995)). Thus α-actinin binds to the region distinct from that which binds to Rho.

full-length human PKN, sequence (P35609 333-894): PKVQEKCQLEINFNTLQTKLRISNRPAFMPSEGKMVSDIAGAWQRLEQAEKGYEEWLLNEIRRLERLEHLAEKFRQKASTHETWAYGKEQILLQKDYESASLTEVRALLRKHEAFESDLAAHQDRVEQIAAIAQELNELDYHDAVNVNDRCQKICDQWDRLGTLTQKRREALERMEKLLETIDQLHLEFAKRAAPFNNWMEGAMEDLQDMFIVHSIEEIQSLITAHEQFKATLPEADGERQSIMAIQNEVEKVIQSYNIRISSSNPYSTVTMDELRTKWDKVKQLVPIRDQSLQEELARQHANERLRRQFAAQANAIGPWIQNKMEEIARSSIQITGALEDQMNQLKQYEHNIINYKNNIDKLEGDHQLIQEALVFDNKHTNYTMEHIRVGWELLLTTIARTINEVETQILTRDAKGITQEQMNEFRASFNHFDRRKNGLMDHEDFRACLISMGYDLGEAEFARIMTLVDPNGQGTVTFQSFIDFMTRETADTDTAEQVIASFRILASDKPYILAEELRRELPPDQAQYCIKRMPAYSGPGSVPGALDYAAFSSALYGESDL
full-length human PKN, sequence (Q16512 whole entry, the tested form may be a part): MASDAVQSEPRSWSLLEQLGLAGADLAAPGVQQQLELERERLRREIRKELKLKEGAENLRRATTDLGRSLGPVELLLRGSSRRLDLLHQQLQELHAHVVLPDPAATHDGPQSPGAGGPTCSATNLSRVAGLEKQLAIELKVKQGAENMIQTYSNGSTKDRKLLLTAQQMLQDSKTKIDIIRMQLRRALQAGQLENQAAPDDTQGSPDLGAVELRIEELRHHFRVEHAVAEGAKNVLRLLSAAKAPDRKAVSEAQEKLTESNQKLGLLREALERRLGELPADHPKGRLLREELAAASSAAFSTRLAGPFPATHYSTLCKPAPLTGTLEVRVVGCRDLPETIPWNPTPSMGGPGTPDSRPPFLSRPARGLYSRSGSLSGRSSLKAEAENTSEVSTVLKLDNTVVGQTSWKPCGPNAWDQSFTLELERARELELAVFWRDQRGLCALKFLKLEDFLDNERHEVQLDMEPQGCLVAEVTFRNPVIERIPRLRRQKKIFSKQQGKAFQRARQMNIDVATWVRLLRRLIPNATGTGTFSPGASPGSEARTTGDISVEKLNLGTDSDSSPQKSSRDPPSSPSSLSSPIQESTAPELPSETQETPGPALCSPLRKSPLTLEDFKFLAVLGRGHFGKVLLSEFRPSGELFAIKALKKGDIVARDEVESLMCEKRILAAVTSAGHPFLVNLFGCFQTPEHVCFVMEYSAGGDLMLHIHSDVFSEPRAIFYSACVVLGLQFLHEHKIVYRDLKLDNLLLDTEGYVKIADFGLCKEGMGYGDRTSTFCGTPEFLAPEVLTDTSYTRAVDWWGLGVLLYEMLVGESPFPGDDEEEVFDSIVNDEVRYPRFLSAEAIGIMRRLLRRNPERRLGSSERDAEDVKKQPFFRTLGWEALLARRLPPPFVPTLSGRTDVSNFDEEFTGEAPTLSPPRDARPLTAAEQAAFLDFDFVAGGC

## HA-tagged α-actinin: influenza HA epitope fused to the amino acid sequence 333-894 of HuActSkl (clone#4)
full-length human PKN
  co-immunoprecipitation of PKN with anti-HA antibody: contained substantially immunoreactive PKN

## HuActSkl (837-894): human skeletal muscle type α-actinin fragment, GST fusion (ILASDKPYILAEELRRELPPDQAQYCIKRMPAYSGPGSVPGALDYAAFSSALYGESDL; also: GST fusion)
[1]
  binding of in vitro translated PKNN2 to the fragment: not

## PKN: in vitro translated PKN (PKNN2, 1-474) in the binding assays of b333 and b480
[2]
  binding to each subunit of NF at the head-rod domain in vitro: directly bound
[3]
  in vitro binding to repeat 20 of rat α-spectrin: not detected

## PKNN2: N-terminal region of PKN, amino acid sequence 1-474 in SEQ ID NO: 1, in vitro translated
[4]
  binding to spectrin-like repeat 3 domain of HuActNm: could bind
[5]; absence of Ca^2+
  binding to EF-hand-like domain of HuActNm: not detected
[5]; presence of 1 mM Ca^2+
  binding to EF-hand-like region of HuActNm: could effectively bind

## amino acid 136-189 of PKN: region of PKN: second leucine zipper-like sequence and adjacent N-terminal region
α-actinin (HuActSkl)
  interaction with α-actinin in two-hybrid system: strongly interacted
RhoA
  interaction with RhoA in two-hybrid system: no interaction was detected

— patent US6660837B1, “Modified protein derived from protein kinase N” (Kirin Beer Kabushiki Kaisha, priority 1995, dated 2003)
